What is called IC50 is the point on the concentration scale where inhibition reaches its midpoint.

The target of test [1] is T1, PTEN (Homo sapiens, UniProt P60484). To be noted: from Odriozola et al.; read-out: IC50, in vitro PTEN (Odriozola peptides); cited from earlier work.
Target sequence in this assay (P60484 whole entry, species assumed): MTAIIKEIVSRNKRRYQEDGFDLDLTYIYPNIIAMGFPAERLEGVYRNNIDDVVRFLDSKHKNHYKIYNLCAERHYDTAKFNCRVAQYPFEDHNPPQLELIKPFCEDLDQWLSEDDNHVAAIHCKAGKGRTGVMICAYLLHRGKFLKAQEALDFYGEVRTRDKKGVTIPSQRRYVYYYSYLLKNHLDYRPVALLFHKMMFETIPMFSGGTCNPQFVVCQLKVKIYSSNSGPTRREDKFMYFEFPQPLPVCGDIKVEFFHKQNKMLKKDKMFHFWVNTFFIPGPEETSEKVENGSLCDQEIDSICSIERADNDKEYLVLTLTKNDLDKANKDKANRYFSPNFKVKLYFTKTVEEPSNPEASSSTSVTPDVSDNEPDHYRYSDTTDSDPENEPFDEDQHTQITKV
For test [2], the target named is T1, PTEN. Description: In vitro PTEN activity assay / IC50 assay (Malachite Green, C8-PIP3 liposome). Type of test: biochemical. Also on record: purchased R&D Systems, Inc. To be noted: 10 μM peptide.
Target sequence in this assay (P60484 whole entry): as the sequence (P60484 whole entry, species assumed) above
Text: In vitro PTEN activity assay was designed to check PTEN lipid phosphatase activity to convert phosphatidylinositol triphosphate (PIP3) to phosphatidylinositol diphosphate (PIP2) and produce phosphate ion (Pi). 1,2-dioctanoyl-sn-glycero-3-phospho-(1′-myo-inositol-3,4,5-triphosphate) (C8-PIP3) was used as PTEN substrate and prepared as lipid vesicle (liposome) with other phospholipids because PTEN as lipid phosphatase is an interfacial enzyme. For liposome preparation, C8-PIP3, DOPS (1,2-dioeloyl-sn-glycero-phosphoserine) and DOPC (1,2-dioeloyl-sn-glycero-phosphocholine) were mixed together with 800 μL of liposome buffer (50 mM Tris, 100 mM NaCl, 10 mM MgCl2, 5 mM DTT, pH=8.0) to final concentration of 0.1 mM of C8-PIP3, 0.25 mM DOPS and 0.25 mM DOPC. The lipid mixture was then sonicated at 4° C. for 30 min to produce liposome. After sonication, the liposome solution was briefly centrifuged to remove remaining lipids.
For PTEN activity assay, 20 ng of recombinant human PTEN protein was mixed with 40 μL of completed liposome solution. […] After incubation, the inorganic phosphate ions produced by PTEN protein was detected using Malachite Green phosphate detection kit. […]
All data represent experimentation in triplicate and the IC50 values were calculated by Prism 5 software (GraphPad Software).
For test [3], the system named is Akt protein phosphorylation in PC12 cells (PI3K-Akt signaling pathway). Kind of test: Akt activation (phosphorylation) level by Western blot in PC12 cells. Type of test: cell-based, rat. To be noted: endogenous or overexpressed PTEN, TGN-1 10 and 100 μM, TGN-4 10 μM, 24 hr.
Experimental: PC12 rat pheochromocytoma cells were seeded to 6-well plate (0.6×10^6 cells/well) and cultured with DMEM media containing 7.5% FBS and 7.5% Goat Serum. After the cell confluency reached around 60˜70%, NGF (nerve growth factor, 50 ng/mL) was added to the PC12 cells for differentiation and incubated for 5 more days. Then, fresh media containing different amounts of TGN peptides in DMSO solution were added to each well and incubated further for 24 hr. For PTEN overexpession, PC12 cells were seeded in 6-well plate (1.0×10^6 cells/well) and differentiated with NGF (50 ng/mL) as above. DNA-Lipofectamine 2000 mixture was prepared for each well of cells to be transfected by firstly adding 2˜2.5 μg of human PTEN c-DNA into 500 μl of Opti-MEM. 3.75-8.75 μl of Lipofectamine 2000™ reagent was added next to the above diluted DNA solution, mixed gently and incubated for 25 minutes at room temperature. Growth media of PC12 cells in 6-well plate was exchanged with fresh media and 500 μl of the DNA-Lipofectamine 2000 complex was added to each well for transfection. Transfected cells were incubated at 37° C. in 5.0% CO2 incubator for 24-48 hours post-transfection before assaying for transgene expression.
After culturing, PC12 cells were collected from the 6-well plate and centrifuged down with bench-top centrifuger to make cell pellet (13,000 rpm, 5 min at RT). […]

Where “and” joins values, the source holds several entries; their conditions need not be identical. Identical values can stand only once. No end group written: not given here.

As for “Cp23: synthetic phosphomimic peptide of Odriozola et al. encompassing PTEN AA368-390, no phosphorylated Serine residues (DVSDNEPDHYRYSDTTDSDPENE; UniProt P60484 368-390, looked up, fragment)”, the IC50 with PTEN [1] is ~1.03 mM and 1.03 mM.
Turning to “RRRRRRRR-DEHDTEYTPDYRQETHFNSQPTDKSDVI-amide (RRRRRRRRDEHDTEYTPDYRQETHFNSQPTDKSDVI-NH2) [TGN-5, TGN-2/TGN-3 scrambled peptide]”, in the test with PTEN [2], the “Inhibitory effect on in vitro PTEN activity” value was “no significant inhibition”.
Regarding “RRRRRRRR-SDDEYTDNPDSRYVSDTPVDTEH-amide (RRRRRRRRSDDEYTDNPDSRYVSDTPVDTEH-NH2) [TGN-4, scrambled peptide of TGN-1 peptide, negative control]”, the “Activation (phosphorylation) level of Akt protein” value in test [3] is on record as “did not increase the activation level of AKT protein”. Moreover, the “Inhibitory effect on in vitro PTEN activity” value in the test with PTEN [2] is reported as “no significant inhibition”.

These data come from patent publication US10584153B2, “Treatment of damaged nerve with PTEN inhibitor” (TISSUEGENE, INC., priority 2013, dated 2020).
